# T1: LIN7B, Q9HAP6
# T1 sequence (Q9HAP6 88-185, limits assumed, looked up): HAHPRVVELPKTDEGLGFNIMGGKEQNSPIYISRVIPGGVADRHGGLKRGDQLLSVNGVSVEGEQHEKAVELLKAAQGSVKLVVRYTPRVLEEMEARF
# T2: SYNJ2BP, P57105
# T2 sequence (P57105 8-110, limits assumed, looked up): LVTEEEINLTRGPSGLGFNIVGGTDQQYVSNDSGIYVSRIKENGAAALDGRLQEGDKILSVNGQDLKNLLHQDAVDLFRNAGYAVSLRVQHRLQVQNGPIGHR
# T3: PARD3B_1, Q8TEW8
# T3 sequence (Q8TEW8 196-299, limits assumed, looked up): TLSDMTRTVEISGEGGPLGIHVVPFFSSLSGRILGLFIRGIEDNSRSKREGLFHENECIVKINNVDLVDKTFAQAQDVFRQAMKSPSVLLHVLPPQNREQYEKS
# T4: DFNB31_1, Q9P202
# T4 sequence (Q9P202 135-233, limits assumed, looked up): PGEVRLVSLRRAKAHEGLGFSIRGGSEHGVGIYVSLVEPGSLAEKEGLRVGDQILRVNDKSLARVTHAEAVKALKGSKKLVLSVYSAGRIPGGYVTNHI
# T5: HTRA3, P83110
# T5 sequence (P83110 354-453, limits assumed, looked up): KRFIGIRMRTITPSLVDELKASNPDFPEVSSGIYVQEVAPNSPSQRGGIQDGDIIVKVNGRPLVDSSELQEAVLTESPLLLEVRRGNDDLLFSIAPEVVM
# T6: DLG3_2, Q92796
# T6 sequence (Q92796 221-321, limits assumed, looked up): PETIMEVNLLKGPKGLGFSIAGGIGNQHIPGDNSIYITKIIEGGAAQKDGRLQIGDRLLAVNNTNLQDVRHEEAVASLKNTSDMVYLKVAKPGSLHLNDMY
# T7: DLG3_1, Q92796
# T7 sequence (Q92796 125-227, limits assumed, looked up): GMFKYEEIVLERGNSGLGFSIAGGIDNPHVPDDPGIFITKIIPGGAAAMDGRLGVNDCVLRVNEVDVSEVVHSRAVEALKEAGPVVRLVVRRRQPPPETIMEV
# T8: GRIP1_4, Q9Y3R0
# T8 sequence (Q9Y3R0 467-571, limits assumed, looked up): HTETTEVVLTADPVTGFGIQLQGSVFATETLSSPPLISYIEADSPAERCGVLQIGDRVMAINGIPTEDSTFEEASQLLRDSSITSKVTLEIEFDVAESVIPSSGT
# T9: RHPN1, Q8TCX5
# T9 sequence (Q8TCX5 508-602, limits assumed, looked up): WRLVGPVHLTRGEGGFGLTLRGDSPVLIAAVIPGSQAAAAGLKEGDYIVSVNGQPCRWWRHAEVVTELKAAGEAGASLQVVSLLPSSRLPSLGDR
# T10: PTPN13_1, Q12923
# T10 sequence (Q12923 1088-1188, limits assumed, looked up): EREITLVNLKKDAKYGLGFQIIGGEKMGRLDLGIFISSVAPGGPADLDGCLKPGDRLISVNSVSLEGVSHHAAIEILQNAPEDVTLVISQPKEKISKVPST
# T11: GRIP1_2, Q9Y3R0
# T11 sequence (Q9Y3R0 145-248, limits assumed, looked up): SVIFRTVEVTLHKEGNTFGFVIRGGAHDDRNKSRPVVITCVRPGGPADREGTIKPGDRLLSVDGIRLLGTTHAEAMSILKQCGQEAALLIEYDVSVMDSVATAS
# T12: MPDZ_10, O75970
# T12 sequence (O75970 1624-1722, limits assumed, looked up): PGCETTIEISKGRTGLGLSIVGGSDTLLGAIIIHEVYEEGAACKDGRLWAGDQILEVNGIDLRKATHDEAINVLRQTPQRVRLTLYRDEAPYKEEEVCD
# Biological target: GORASP2, Q9H8Y8
# Experiment: holdup assay
# Parameters: key: below the threshold = too weak to quantify, mostly under pKd 3.1 to 4
# Conditions: plain residues with an end cap or a label only (N-terminal biotin on a linker: ado-ado)
row,Binder,pKd
1,"SNAGNTATKA [NOSTRIN, Q8IVI9]",below the threshold
2,"SGSLKLMTTV [DACT1, Q9NYF0]",4.32

# Biological target: Inadl_9, Q8NI35
# Experiment: holdup assay
# Parameters: key: below the threshold = too weak to quantify, mostly under pKd 3.1 to 4
# Conditions: plain residues with an end cap or a label only (N-terminal biotin on a linker: ado-ado)
# Chain of Inadl_9, Q8NI35 (Q8NI35 1530-1615): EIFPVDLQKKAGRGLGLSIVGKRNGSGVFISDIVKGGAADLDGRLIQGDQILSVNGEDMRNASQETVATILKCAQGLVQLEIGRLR
row,Binder,pKd
1,"SNAGNTATKA [NOSTRIN, Q8IVI9]",below the threshold
2,"SGSLKLMTTV [DACT1, Q9NYF0]",below the threshold

# Biological target: T1, LIN7B, Q9HAP6
# Experiment: holdup assay
# Parameters: key: below the threshold = too weak to quantify, mostly under pKd 3.1 to 4
# Conditions: plain residues with an end cap or a label only (N-terminal biotin on a linker: ado-ado)
row,Binder,pKd
1,"SNAGNTATKA [NOSTRIN, Q8IVI9]",3.74
2,"SGSLKLMTTV [DACT1, Q9NYF0]",below the threshold

# Biological target: LAP2, Q96RT1
# Experiment: holdup assay
# Parameters: key: below the threshold = too weak to quantify, mostly under pKd 3.1 to 4
# Conditions: plain residues with an end cap or a label only (N-terminal biotin on a linker: ado-ado)
# Chain of LAP2, Q96RT1 (Q96RT1 other isoform, or with tags, fused parts or gaps): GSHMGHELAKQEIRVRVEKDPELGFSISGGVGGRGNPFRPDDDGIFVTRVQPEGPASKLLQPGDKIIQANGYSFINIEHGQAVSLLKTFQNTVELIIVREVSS
row,Binder,pKd
1,"SNAGNTATKA [NOSTRIN, Q8IVI9]",below the threshold
2,"SGSLKLMTTV [DACT1, Q9NYF0]",below the threshold

# Biological target: TJP2_1, Q9UDY2
# Experiment: holdup assay
# Parameters: key: below the threshold = too weak to quantify, mostly under pKd 3.1 to 4
# Conditions: plain residues with an end cap or a label only (N-terminal biotin on a linker: ado-ado)
# Chain of TJP2_1, Q9UDY2 (Q9UDY2 24-128): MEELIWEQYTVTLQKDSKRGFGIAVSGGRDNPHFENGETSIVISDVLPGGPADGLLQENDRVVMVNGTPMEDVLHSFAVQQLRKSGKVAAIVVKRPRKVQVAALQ
row,Binder,pKd
1,"SNAGNTATKA [NOSTRIN, Q8IVI9]",below the threshold
2,"SGSLKLMTTV [DACT1, Q9NYF0]",3.58

# Biological target: HTRA1, Q92743
# Experiment: holdup assay
# Parameters: key: below the threshold = too weak to quantify, mostly under pKd 3.1 to 4
# Conditions: plain residues with an end cap or a label only (N-terminal biotin on a linker: ado-ado)
# Chain of HTRA1, Q92743 (Q92743 360-477): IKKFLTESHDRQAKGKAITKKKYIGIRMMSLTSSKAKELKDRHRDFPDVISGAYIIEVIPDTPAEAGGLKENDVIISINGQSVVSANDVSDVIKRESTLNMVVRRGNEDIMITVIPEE
row,Binder,pKd
1,"SNAGNTATKA [NOSTRIN, Q8IVI9]",below the threshold
2,"SGSLKLMTTV [DACT1, Q9NYF0]",4.04

# Biological target: T2, SYNJ2BP, P57105
# Experiment: holdup assay
# Parameters: key: below the threshold = too weak to quantify, mostly under pKd 3.1 to 4
# Conditions: plain residues with an end cap or a label only (N-terminal biotin on a linker: ado-ado)
row,Binder,pKd
1,"SNAGNTATKA [NOSTRIN, Q8IVI9]",below the threshold
2,"SGSLKLMTTV [DACT1, Q9NYF0]",4.3

# Biological target: IL16_1, Q14005
# Experiment: holdup assay
# Parameters: key: below the threshold = too weak to quantify, mostly under pKd 3.1 to 4
# Conditions: plain residues with an end cap or a label only (N-terminal biotin on a linker: ado-ado)
# Chain of IL16_1, Q14005 (Q14005 210-306): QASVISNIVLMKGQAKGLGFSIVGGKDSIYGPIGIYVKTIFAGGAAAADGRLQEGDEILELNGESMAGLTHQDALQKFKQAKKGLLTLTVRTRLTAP
row,Binder,pKd
1,"SNAGNTATKA [NOSTRIN, Q8IVI9]",below the threshold
2,"SGSLKLMTTV [DACT1, Q9NYF0]",below the threshold

# Biological target: T3, PARD3B_1, Q8TEW8
# Experiment: holdup assay
# Parameters: key: below the threshold = too weak to quantify, mostly under pKd 3.1 to 4
# Conditions: plain residues with an end cap or a label only (N-terminal biotin on a linker: ado-ado)
row,Binder,pKd
1,"SNAGNTATKA [NOSTRIN, Q8IVI9]",below the threshold
2,"SGSLKLMTTV [DACT1, Q9NYF0]",below the threshold

# Biological target: Inadl_10, Q8NI35
# Experiment: holdup assay
# Parameters: key: below the threshold = too weak to quantify, mostly under pKd 3.1 to 4
# Conditions: plain residues with an end cap or a label only (N-terminal biotin on a linker: ado-ado)
# Chain of Inadl_10, Q8NI35 (Q8NI35 1673-1763): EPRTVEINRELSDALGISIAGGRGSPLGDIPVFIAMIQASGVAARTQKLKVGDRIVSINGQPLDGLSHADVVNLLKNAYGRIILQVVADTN
row,Binder,pKd
1,"SNAGNTATKA [NOSTRIN, Q8IVI9]",below the threshold
2,"SGSLKLMTTV [DACT1, Q9NYF0]",3.84

# Biological target: T4, DFNB31_1, Q9P202
# Experiment: holdup assay
# Parameters: key: below the threshold = too weak to quantify, mostly under pKd 3.1 to 4
# Conditions: plain residues with an end cap or a label only (N-terminal biotin on a linker: ado-ado)
row,Binder,pKd
1,"SNAGNTATKA [NOSTRIN, Q8IVI9]",below the threshold
2,"SGSLKLMTTV [DACT1, Q9NYF0]",3.56

# Biological target: NHERF4_4, Q86UT5
# Experiment: holdup assay
# Parameters: key: below the threshold = too weak to quantify, mostly under pKd 3.1 to 4
# Conditions: plain residues with an end cap or a label only (N-terminal biotin on a linker: ado-ado)
# Chain of NHERF4_4, Q86UT5 (Q86UT5 464-550): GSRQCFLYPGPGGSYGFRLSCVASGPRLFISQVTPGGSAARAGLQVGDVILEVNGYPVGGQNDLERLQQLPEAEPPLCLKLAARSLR
row,Binder,pKd
1,"SNAGNTATKA [NOSTRIN, Q8IVI9]",below the threshold
2,"SGSLKLMTTV [DACT1, Q9NYF0]",below the threshold

# Biological target: T5, HTRA3, P83110
# Experiment: holdup assay
# Parameters: key: below the threshold = too weak to quantify, mostly under pKd 3.1 to 4
# Conditions: plain residues with an end cap or a label only (N-terminal biotin on a linker: ado-ado)
row,Binder,pKd
1,"SNAGNTATKA [NOSTRIN, Q8IVI9]",below the threshold
2,"SGSLKLMTTV [DACT1, Q9NYF0]",below the threshold

# Biological target: T6, DLG3_2, Q92796
# Experiment: holdup assay
# Parameters: key: below the threshold = too weak to quantify, mostly under pKd 3.1 to 4
# Conditions: plain residues with an end cap or a label only (N-terminal biotin on a linker: ado-ado)
row,Binder,pKd
1,"SNAGNTATKA [NOSTRIN, Q8IVI9]",4.25
2,"SGSLKLMTTV [DACT1, Q9NYF0]",5.12

# Biological target: T7, DLG3_1, Q92796
# Experiment: holdup assay
# Parameters: key: below the threshold = too weak to quantify, mostly under pKd 3.1 to 4
# Conditions: plain residues with an end cap or a label only (N-terminal biotin on a linker: ado-ado)
row,Binder,pKd
1,"SNAGNTATKA [NOSTRIN, Q8IVI9]",below the threshold
2,"SGSLKLMTTV [DACT1, Q9NYF0]",4.45

# Biological target: T8, GRIP1_4, Q9Y3R0
# Experiment: holdup assay
# Parameters: key: below the threshold = too weak to quantify, mostly under pKd 3.1 to 4
# Conditions: plain residues with an end cap or a label only (N-terminal biotin on a linker: ado-ado)
row,Binder,pKd
1,"SNAGNTATKA [NOSTRIN, Q8IVI9]",below the threshold
2,"SGSLKLMTTV [DACT1, Q9NYF0]",below the threshold

# Biological target: Inadl_5, Q8NI35
# Experiment: holdup assay
# Parameters: key: below the threshold = too weak to quantify, mostly under pKd 3.1 to 4
# Conditions: plain residues with an end cap or a label only (N-terminal biotin on a linker: ado-ado)
# Chain of Inadl_5, Q8NI35 (Q8NI35 673-780): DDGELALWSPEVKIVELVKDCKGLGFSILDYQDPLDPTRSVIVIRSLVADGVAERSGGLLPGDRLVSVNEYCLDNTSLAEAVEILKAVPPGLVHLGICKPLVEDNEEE
row,Binder,pKd
1,"SNAGNTATKA [NOSTRIN, Q8IVI9]",below the threshold
2,"SGSLKLMTTV [DACT1, Q9NYF0]",below the threshold

# Biological target: T9, RHPN1, Q8TCX5
# Experiment: holdup assay
# Parameters: key: below the threshold = too weak to quantify, mostly under pKd 3.1 to 4
# Conditions: plain residues with an end cap or a label only (N-terminal biotin on a linker: ado-ado)
row,Binder,pKd
1,"SNAGNTATKA [NOSTRIN, Q8IVI9]",below the threshold
2,"SGSLKLMTTV [DACT1, Q9NYF0]",4.58

# Biological target: T10, PTPN13_1, Q12923
# Experiment: holdup assay
# Parameters: key: below the threshold = too weak to quantify, mostly under pKd 3.1 to 4
# Conditions: plain residues with an end cap or a label only (N-terminal biotin on a linker: ado-ado)
row,Binder,pKd
1,"SNAGNTATKA [NOSTRIN, Q8IVI9]",below the threshold
2,"SGSLKLMTTV [DACT1, Q9NYF0]",below the threshold

# Biological target: NOS1, P29475
# Experiment: holdup assay
# Parameters: key: below the threshold = too weak to quantify, mostly under pKd 3.1 to 4
# Conditions: plain residues with an end cap or a label only (N-terminal biotin on a linker: ado-ado)
# Chain of NOS1, P29475 (P29475 9-101): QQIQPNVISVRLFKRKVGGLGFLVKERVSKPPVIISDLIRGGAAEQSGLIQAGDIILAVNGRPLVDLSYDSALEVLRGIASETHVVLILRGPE
row,Binder,pKd
1,"SNAGNTATKA [NOSTRIN, Q8IVI9]",below the threshold
2,"SGSLKLMTTV [DACT1, Q9NYF0]",below the threshold

# Biological target: TJP1_3, Q07157
# Experiment: holdup assay
# Parameters: key: below the threshold = too weak to quantify, mostly under pKd 3.1 to 4
# Conditions: plain residues with an end cap or a label only (N-terminal biotin on a linker: ado-ado)
# Chain of TJP1_3, Q07157 (Q07157 416-512): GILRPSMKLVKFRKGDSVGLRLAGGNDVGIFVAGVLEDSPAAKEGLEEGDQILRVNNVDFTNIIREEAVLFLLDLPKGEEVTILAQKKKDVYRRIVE
row,Binder,pKd
1,"SNAGNTATKA [NOSTRIN, Q8IVI9]",below the threshold
2,"SGSLKLMTTV [DACT1, Q9NYF0]",below the threshold

# Biological target: T11, GRIP1_2, Q9Y3R0
# Experiment: holdup assay
# Parameters: key: below the threshold = too weak to quantify, mostly under pKd 3.1 to 4
# Conditions: plain residues with an end cap or a label only (N-terminal biotin on a linker: ado-ado)
row,Binder,pKd
1,"SNAGNTATKA [NOSTRIN, Q8IVI9]",below the threshold
2,"SGSLKLMTTV [DACT1, Q9NYF0]",below the threshold

# Biological target: T12, MPDZ_10, O75970
# Experiment: holdup assay
# Parameters: key: below the threshold = too weak to quantify, mostly under pKd 3.1 to 4
# Conditions: plain residues with an end cap or a label only (N-terminal biotin on a linker: ado-ado)
row,Binder,pKd
1,"SNAGNTATKA [NOSTRIN, Q8IVI9]",below the threshold
2,"SGSLKLMTTV [DACT1, Q9NYF0]",below the threshold

# Biological target: DLG1_3, Q12959
# Experiment: holdup assay
# Parameters: key: below the threshold = too weak to quantify, mostly under pKd 3.1 to 4
# Conditions: plain residues with an end cap or a label only (N-terminal biotin on a linker: ado-ado)
# Chain of DLG1_3, Q12959 (Q12959 457-571): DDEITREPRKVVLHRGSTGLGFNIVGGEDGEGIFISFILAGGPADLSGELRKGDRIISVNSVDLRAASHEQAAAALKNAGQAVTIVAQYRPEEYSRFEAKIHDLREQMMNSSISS
row,Binder,pKd
1,"SNAGNTATKA [NOSTRIN, Q8IVI9]",below the threshold
2,"SGSLKLMTTV [DACT1, Q9NYF0]",3.55

# Biological target: DLG4_1, P78352
# Experiment: holdup assay
# Parameters: key: below the threshold = too weak to quantify, mostly under pKd 3.1 to 4
# Conditions: plain residues with an end cap or a label only (N-terminal biotin on a linker: ado-ado)
# Chain of DLG4_1, P78352 (P78352 62-152): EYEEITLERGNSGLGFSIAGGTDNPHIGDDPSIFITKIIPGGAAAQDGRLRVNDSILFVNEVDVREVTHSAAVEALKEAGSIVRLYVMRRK
row,Binder,pKd
1,"SNAGNTATKA [NOSTRIN, Q8IVI9]",below the threshold
2,"SGSLKLMTTV [DACT1, Q9NYF0]",5.02

# Source: PMC9482650, “Quantitative fragmentomics allow affinity mapping of interactomes” (Nature Communications, 2022)
